The text below walks through data of patent publication US20230024461A1, “METHODS FOR DUAL DNA/PROTEIN TAGGING OF OPEN CHROMATIN” (Beth Israel Deaconess Medical Center, Inc., priority 2019, published 2023).

Entries after “also recorded” stand apart in the source; their conditions may differ.

The test system of this assay is HT1080 cells. The assay can be described thus: Co-immunofluorescence/ATAC-see analysis. The class given is cell-based, human. The method, then: Co-immunofluorescence/ATAC-see analysis. ATAC-see was performed similarly as previously described with slight modifications (Chen et al., Nat. Methods 13:1013-1020, 2016). Enzyme and transposon DNA were mixed at a 1:1.25 enzyme:MEDS-A/B-AF647 molar ratio and incubated at room temperature for 1 hour. Adherent cells were grown on glass coverslips (Fisher Scientific, 12-540A) until 80-90% confluent, washed with 1×PBS, fixed with 1% formaldehyde (Electron Microscopy Services) in 1×PBS for 10 minutes, and washed twice with ice-cold 1×PBS. Suspension cells were washed and resuspended with 1×PBS. 50,000 cells were added to poly-lysine slides and incubated at room temperature for 1 hour in a humidified chamber. An equal volume of 2% formaldehyde was added and incubated for 10 minutes, whereupon slides were washed twice with ice-cold 1×PBS. Immobilized cells were lysed by incubation with LB1 for 3 minutes followed by LB2 for 10 minutes at room temperature. Cells were then subject to tagmentation (20% dimethylformamide, 10 mM MgCl2, 20 mM Tris-HCl pH 7.5, 33% 1×PBS, 0.01% digitonin, 0.1% Tween-20, and either 80 pmol enzyme equivalent of enzyme:DNA complex in a total volume of 100 μL for adherent cells or 10 pmol enzyme equivalent of enzyme:DNA complex in a total volume of 50 μL for suspension cells) for 30 minutes at 37° C. in a humidified chamber. Subsequently, cells were washed with 50 mM EDTA and 0.01% SDS in 1×PBS three times for 15 minute each at 55° C., lysed for 10 minutes with 0.5% Triton X-100 in 1×PBS at room temperature, and blocked with 1% BSA and 10% goat serum in PBS-T for 1 hour in a humidified chamber. Primary antibody was added to slides in 1% BSA/PBS-T and incubated at 4° C. overnight; slides were then washed and subjected to secondary antibody staining for 1 hour. Slides were washed with PBS-T three times for 15 minutes each, stained with DAPI (Sigma, 1 μg/mL) for 1 minute, washed with PBS for 10 minutes, and mounted with Fluorescence Mounting Medium (Dako). Confocal microscopy images were taken with an LSM 880 Axio Imager 2 at 63× magnification (Zeiss). Images were processed with Fiji/ImageJ v2.0.0.
Primary antibodies used were anti-RNA polymerase II CTD repeat YSPTSPS (phospho S2) (rabbit, Abcam ab5095, 1:500), anti-H3K27Ac (rabbit, Abcam ab4729, 1:500), anti-H3K9me3 (rabbit, Abcam ab8898, 1:500), anti-CCDCl2 (rabbit, Atlas Antibodies HPA060530, 1:200), anti-SNRPA (mouse, 3F9-1F7, Sigma-Aldrich WH0006626M1, 1:100). […]
Quantitative image analyses were performed with CellProfiler v3.1.5. […] Pearson correlation coefficients were determined by comparing ATAC-see pixel intensities with corresponding immunofluorescence intensity values within each ROI to assess the nucleus-to-nucleus variation in colocalization. […]

B1: TP3: Tn5 transposase-AEAAAKEAAAKA linker-APEX2 peroxidase fusion, C-terminal FLAG; amino acid SEQ ID NO: 27 (protein)
chain: MITSALHRAADWAKSVFSSAALGDPRRTARLVNVAAQLAKYSGKSITISSEGSKAMQEGAYRFIRNPNVSAEAIRKAGAMQTVKLAQEFPELLAIEDTTSLSYRHQVAEELGKLGSIQDKSRGWWVHSVLLLEATTFRTVGLLHQEWWMRPDDPADADEKESGKWLAAAATSRLRMGSMMSNVIAVCDREADIHAYLQDKLAHNERFVVRSKHPRKDVESGLYLYDHLKNQPELGGYQISIPQKGVVDKRGKRKNRPARKASLSLRSGRITLKQGNITLNAVLAEEINPPKGETPLKWLLLTSEPVESLAQALRVIDIYTHRWRIEEFHKAWKTGAGAERQRMEEPDNLERMVSILSFVAVRLLQLRESFTPPQALRAQGLLKEAEHVESQSAETVLTPDECQLLGYLDKGKRKRKEKAGSLQWAYMAIARLGGFMDSKRTGIASWGALWEGWEALQSKLDGFLAAKDLMAQGIKIAEAAAKEAAAKAGKSYPTVSADYQDAVEKAKKKLRGFIAEKRCAPLMLRLAFHSAGTFDKGTKTGGPFGTIKHPAELAHSANNGLDIAVRLLEPLKAEFPILSYADFYQLAGVVAVEVTGGPKVPFHPGREDKPEPPPEGRLPDPTKGSDHLRDVFGKAMGLTDQDIVALSGGHTIGAAHKERSGFEGPWTSNPLIFDNSYFTELLSGEKEGLLQLPSDKALLSDPVFRPLVDKYAADEDAFFADYAEAHQKLSELGFADADYKDDDDK
modifications: C-terminal FLAG
B1: for the setting “marker of transcriptionally inactive chromatin”, the “ATAC-see correlation with H3K9me3 immunofluorescence” value is reported as “poorly correlating; also recorded: similarly poor correlations”. Moreover, under “markers of transcriptionally active chromatin”, the “ATAC-see correlation with H3K27Ac and RNAPII S2P immunofluorescence signal” value is “strongly correlating; also recorded: similarly positive correlations”.
